The values below come from the supplement of paper PMC11316812.

In one data set the test system is hTERT-HMEC. Nature of the data set: percentage of EdU-negative (G0-arrested) nuclei per well, 72 h; higher = more G0 arrest. The note with it: reference: sequence is the full UniProt precursor, the tested protein was the secreted form or ectodomain.
A further data set deals with MCF7. Described as above. As to conditions: reference: sequence is the full UniProt precursor, the tested protein was the secreted form or ectodomain.
The mark [1] stands for this setting: protein concentration 0.0225 µM.
Setting [2] is: protein concentration 0.03125 µM.
Setting [3] is: protein concentration 0.3125 µM.
[4] abbreviates: protein concentration 0.0257143 µM.
Setting [5] is: protein concentration 0.257143 µM.

± gives the standard deviation of the averaged measurements.
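Further: secreted proteins added to cultured cells, EdU pulse at the end, nuclei found by Hoechst imaging, EdU status from nuclear versus surrounding ring intensity ratio, PBS as neutral control.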

As for “MAMRLILFFGALFGHIYCLETFVGDQVLEIVPSNEEQIKNLLQLEAQEHLQLDFWKSPTTPGETAHVRVPFVNVQAVKVFLESQGIAYSIMIEDVQVLLDKENEEMLFNRRRERSGNFNFGAYHTLEEISQEMDNLVAEHPGLVSKVNIGSSFENRPMNVLKFSTGGDKPAIWLDAGIHAREWVTQATALWTANKIVSDYGKDPSITSILDALDIFLLPVTNPDGYVFSQTKNRMWRKTRSKVSGSLCVGVDPNRNWDAGFGGPGASSNPCSDSYHGPSANSEVEVKSIVDFIKSHGKVKAFITLHSYSQLLMFPYGYKCTKLDDFDELSEVAQKAAQSLRSLHGTKYKVGPICSVIYQASGGSIDWSYDYGIKYSFAFELRDTGRYGFLLPARQILPTAEETWLGLKAIMEHVRDHPY”, the “percentage of EdU-negative” value in the data set with hTERT-HMEC (setting [1]) was found to be 6 ± 1%; in the data set on hTERT-HMEC (protein concentration 0.225 µM), 5.16 ± 0.28%; in the data set with MCF7 (setting [1]), 25.6 ± 2.3%; with MCF7 (protein concentration 0.225 µM), 24.9 ± 0.71%.
For “MANRGPAYGLSREVQQKIEKQYDADLEQILIQWITTQCRKDVGRPQPGRENFQNWLKDGTVLCELINALYPEGQAPVKKIQASTMAFKQMEQISQFLQAAERYGINTTDIFQTVDLWEGKNMACVQRTLMNLGGLAVARDDGLFSGDPNWFPKKSKENPRNFSDNQLQEGKNVIGLQMGTNRGASQAGMTGYGMPRQIL”, the “percentage of EdU-negative” value in the data set with hTERT-HMEC (setting [2]) was 6.1 ± 1.2%; with hTERT-HMEC (setting [3]), 5.189 ± 0.039%; with MCF7 (setting [2]) it was 25.9 ± 1.3%; in the data set with MCF7 (setting [3]), 25.2 ± 2.8%.
With “MAPAGCCCCCCFWGGAVAAAGAARRVLLLLLLGVLSAGLRPGALATEHYSPLSLLKQELQHRQQQEAPAGGGGCSPQSGDWGDQYSAECGESSFLNFHDSDCEPKGSSPCDSLLSLNTEKILSQAKSIAEQKRFPFATDNDSTNEELAIAYVLIGSGLYDEAIRHFSTMLQEEPDLVSAIYGRGIAYGKKGLHDIKNAELALFELSRVITLEPDRPEVFEQRAEILSPLGRINEAVNDLTKAIQLQPSARLYRHRGTLYFISEDYATAHEDFQQSLELNKNQPIAMLYKGLTFFHRGLLKEAIESFKEALKQKVDFIDAYKSLGQAYRELGNFEAATESFQKALLLNQNHVQTLQLRGMMLYHHGSLQEALKNFKRCLQLEPYNEVCQYMKGLSHVAMGQFYEGIKAQTKVMLNDPLPGQKASPEYLKVKYLREYSRYLHAHLDTPLTEYNIDVDLPGSFKDHWAKNLPFLIEDYEEQPGLQPHIKDVLHQNFESYKPEVQELICVADRLGSLMQYETPGFLPNKRIHRAMGLAALEVMQAVQRTWTNSKVRMNGKTRLMQWRDMFDIAVKWRRIADPDQPVLWLDQMPARSLSRGFNNHINLIRGQVINMRYLEYFEKILHFIKDRILVYHGANNPKGLLEVREALEKVHKVEDLLPIMKQFNTKTKDGFTVNTKVPSLKDQGKEYDGFTITITGDKVGNILFSVETQTTEERTQLYHAEIDALYKDLTAKGKVLILSSEFGEADAVCNLILSLVYYFYNLMPLSRGSSVIAYSVIVGALMASGKEVAGKIPKGKLVDFEAMTAPGSEAFSKVAKSWMNLKSISPSYKTLPSVSETFPTLRSMIEVLNTDSSPRCLKKL [Q8NBP0]”, the “percentage of EdU-negative” value amounted to 5.436 ± 0.048% in the data set on hTERT-HMEC (protein concentration 0.012 µM), 11 ± 2.8% in the data set on hTERT-HMEC (protein concentration 0.12 µM), 25.9 ± 1.1% in the data set with MCF7 (protein concentration 0.012 µM) and 27.7 ± 0.85% with MCF7 (protein concentration 0.12 µM).
Turning to “MAPAGVSLRATILCLLAWAGLAAGDRVYIHPFHLVIHNESTCEQLAKANAGKPKDPTFIPAPIQAKTSPVDEKALQDQLVLVAAKLDTEDKLRAAMVGMLANFLGFRIYGMHSELWGVVHGATVLSPTAVFGTLASLYLGALDHTADRLQAILGVPWKDKNCTSRLDAHKVLSALQAVQGLLVAQGRADSQAQLLLSTVVGVFTAPGLHLKQPFVQGLALYTPVVLPRSLDFTELDVAAEKIDRFMQAVTGWKTGCSLMGASVDSTLAFNTYVHFQGKMKGFSLLAEPQEFWVDNSTSVSVPMLSGMGTFQHWSDIQDNFSVTQVPFTESACLLLIQPHYASDLDKVEGLTFQQNSLNWMKKLSPRTIHLTMPQLVLQGSYDLQDLLAQAELPAILHTELNLQKLSNDRIRVGEVLNSIFFELEADEREPTESTQQLNKPEVLEVTLNRPFLFAVYDQSATALHFLGRVANPLSTA”, the “percentage of EdU-negative” value in the data set on hTERT-HMEC (setting [2]) turned out to be 5.56 ± 0.51%; in the data set on hTERT-HMEC (setting [3]), 5.41 ± 0.61%; in the data set with MCF7 (setting [2]), 23.9 ± 1.3%; in the data set with MCF7 (setting [3]) it was 26.5 ± 1.4%.
On to “MAPAMESPTLLCVALLFFAPDGVLAVPQKPKVSLNPPWNRIFKGENVTLTCNGNNFFEVSSTKWFHNGSLSEETNSSLNIVNAKFEDSGEYKCQHQQVNESEPVYLEVFSDWLLLQASAEVVMEGQPLFLRCHGWRNWDVYKVIYYKDGEALKYWYENHNISITNATVEDSGTYYCTGKVWQLDYESEPLNITVIKAPREKYWLQFFIPLLVVILFAVDTGLFISTQQQVTFLLKIKRTRKGFRLLNPHPKPNPKNN”, for which the “percentage of EdU-negative” value with hTERT-HMEC (setting [4]) turned out to be 4.74 ± 1.5%; in the data set on hTERT-HMEC (setting [5]), 5.8 ± 0.29%; with MCF7 (setting [4]), 24.7 ± 1.3%; in the data set on MCF7 (setting [5]), 25.9 ± 1.7%.
As for “MAPAQRPLLPLLLLLLPLPPPPFARAEDAARANSDRYAVYWNRSNPRFHAGAGDDGGGYTVEVSINDYLDIYCPHYGAPLPPAERMEHYVLYMVNGEGHASCDHRQRGFKRWECNRPAAPGGPLKFSEKFQLFTPFSLGFEFRPGHEYYYISATPPNAVDRPCLRLKVYVRPTNETLYEAPEPIFTSNNSCSSPGGCRLFLSTIPVLWTLLGS”, the “percentage of EdU-negative” value turned out to be 5.69 ± 1.4% with hTERT-HMEC (setting [1]), 9.78 ± 0.54% in the data set with hTERT-HMEC (protein concentration 0.225 µM), 25.4 ± 3% in the data set with MCF7 (setting [1]) and 27.3 ± 0.45% in the data set on MCF7 (protein concentration 0.225 µM).
“MAPARAGCCPLLLLLLGLWVAEVLVRAKPKDMTSSQWFKTQHVQPSPQACNSAMSIINKYTERCKDLNTFLHEPFSSVAITCQTPNIACKNSCKNCHQSHGPMSLTMGELTSGKYPNCRYKEKHLNTPYIVACDPPQQGDPGYPLVPVHLDKVV [Q8TDE3]”: the “percentage of EdU-negative” value is 5.33 ± 0.52% with hTERT-HMEC (setting [1]), 5.09 ± 1.2% with hTERT-HMEC (protein concentration 0.225 µM), 28.2 ± 0.91% with MCF7 (setting [1]) and 27.5 ± 4.3% in the data set with MCF7 (protein concentration 0.225 µM).
